Series [1] concerns the target T1, hY4R (Homo sapiens, UniProt P50391). Further details: expressed in transfected cells; host or cells: CHO (co-expressing Gqi5 and mitochondrially targeted aequorin). The conditions noted are these: cited from earlier work.
The target of series [2] is T2, hY1R (Homo sapiens, UniProt P25929).
T2 construct: host or cells: SK-N-MC neuroblastoma cells
T2 sequence (P25929 1-384): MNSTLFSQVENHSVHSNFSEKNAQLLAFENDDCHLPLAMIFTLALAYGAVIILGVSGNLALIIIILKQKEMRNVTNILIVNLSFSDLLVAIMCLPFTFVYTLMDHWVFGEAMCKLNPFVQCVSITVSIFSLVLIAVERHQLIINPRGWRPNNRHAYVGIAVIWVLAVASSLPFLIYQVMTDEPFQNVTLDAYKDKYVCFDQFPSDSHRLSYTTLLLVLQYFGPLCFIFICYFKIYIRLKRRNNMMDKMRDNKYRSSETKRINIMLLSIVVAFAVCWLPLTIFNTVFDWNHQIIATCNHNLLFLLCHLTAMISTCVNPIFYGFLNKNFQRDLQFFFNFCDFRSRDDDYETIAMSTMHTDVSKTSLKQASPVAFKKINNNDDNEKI
Briefly: Y1R radioligand competition binding, whole SK-N-MC cells, [3H]UR-MK299. Particulars: SK-N-MC neuroblastoma cells, [3H]UR-MK299 c = […]; read-out: pKi ± SEM hY1R (converted). Here is the method: (§1) All radioligand binding assays were performed at intact Y receptor expressing cells at 23 ± 2 °C.
Competition binding assays at Y1R-expressing SK-N-MC neuroblastoma cells were performed as previously described using [^3H]UR-MK299 as radioligand (concentration: 0.15 nM).[33] […] (logarithmic form in the case of pKi values).
On the technique in general: Displacement assays read how much labelled ligand stays bound in the presence of the test substance.

The target of series [3] is T3, hY2R (Homo sapiens, UniProt P49146).
T3 construct: host or cells: CHO
T3 sequence (P49146 1-381): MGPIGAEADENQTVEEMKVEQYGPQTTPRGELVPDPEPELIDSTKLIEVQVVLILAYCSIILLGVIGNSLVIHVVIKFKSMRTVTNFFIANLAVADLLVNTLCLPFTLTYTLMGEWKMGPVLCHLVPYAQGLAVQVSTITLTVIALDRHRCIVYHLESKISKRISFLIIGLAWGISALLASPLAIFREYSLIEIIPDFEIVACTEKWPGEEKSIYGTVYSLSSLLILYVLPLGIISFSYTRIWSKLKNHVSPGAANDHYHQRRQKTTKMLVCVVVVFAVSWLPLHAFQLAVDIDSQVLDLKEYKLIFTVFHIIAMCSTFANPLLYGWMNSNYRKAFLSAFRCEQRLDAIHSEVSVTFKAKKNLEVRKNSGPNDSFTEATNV
The series can be described thus: Y2R radioligand competition binding, whole CHO-hY2R cells, [3H]propionyl-pNPY. The conditions noted are these: read-out: pKi ± SEM hY2R (converted). Here is the method: as §1

Series [4] addresses T4, hY5R (Homo sapiens, UniProt Q15761).
T4 construct: expressed in transfected cells; host or cells: HEC-1B (human endometrial cancer)
T4 sequence (Q15761 1-445): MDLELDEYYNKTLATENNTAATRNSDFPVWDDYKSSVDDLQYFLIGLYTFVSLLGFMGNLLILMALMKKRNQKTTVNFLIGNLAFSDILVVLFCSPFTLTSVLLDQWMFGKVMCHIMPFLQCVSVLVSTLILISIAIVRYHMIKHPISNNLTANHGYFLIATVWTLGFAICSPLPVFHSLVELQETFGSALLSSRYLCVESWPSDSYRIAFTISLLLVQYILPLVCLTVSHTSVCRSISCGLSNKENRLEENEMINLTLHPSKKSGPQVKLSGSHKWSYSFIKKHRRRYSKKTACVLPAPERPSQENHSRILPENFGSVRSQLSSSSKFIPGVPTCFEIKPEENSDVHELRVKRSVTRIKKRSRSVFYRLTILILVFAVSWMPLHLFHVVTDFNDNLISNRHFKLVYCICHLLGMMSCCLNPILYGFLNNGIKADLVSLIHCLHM
The series can be described thus: Y5R radioligand competition binding, whole HEC-1B-hY5R cells, [3H]propionyl-pNPY. Particulars: [3H]propionyl-pNPY c = 5 nM. Here is the method: as §1
(logarithmic form in the case of pKi values).

Series [5] deals with Y4R (Homo sapiens, UniProt P50391). The series can be described thus: Y4R miniGsi recruitment assay (HEK293T-NlucN-mGsi/Y4R-NlucC cells). Further: relative to 1 µM hPP (100%). Type of series: cell-based. Set-up: expressed in transfected cells; host or cells: HEK293T. Particulars: read-out: miniGsi recruitment Emax ± SEM. As to the method: Furimazine was used as nanoluciferase substrate. The original stock was diluted 1:1000 in L15-HEPES to obtain the feed solution for the assay. Data analysis was performed based on the areas under the curves (time window: 45 min starting with the agonist addition) using GraphPad Prism 5. […] Efficacies Emax correspond to the upper plateaus of the normalized concentration–response curves.

The target in series [6] is T1, hY4R. Briefly: Y4R Ca2+ aequorin assay (CHO-hY4R-Gqi5-mtAEQ cells). Type of series: cell-based. Further details: expressed in transfected cells; host or cells: CHO (co-expressing Gqi5 and mitochondrially targeted aequorin). The conditions noted are these: for EC50: CHO-hY4R-Gqi5-mtAEQ cells, agonist mode, read-out: Ca2+-aequorin pEC50 ± SEM (converted); for Emax: read-out: Ca2+-aequorin Emax ± SEM. Here is the method: The assay was performed with live CHO-hY4R-Gqi5-mtAEQ cells as previously described (used buffer: buffer III). Measurements were carried out on a Tecan Infinite Lumi plate reader. Data analysis was performed as reported using GraphPad Prism 5 for the calculation of the area under the curve. […] Efficacies Emax correspond to the upper plateaus of the normalized concentration–response curves.

A short description of series [7]: Chemical stability in PBS pH 7.4. Type of series: physicochemical. Here is the method:
The chemical stability of the fluorescent ligands 16, 17, and 18 was investigated in PBS (adjusted to pH 7.4) at 22 °C. […] After time periods of 0, 6, and 48 h, an aliquot (25 μL) was withdrawn and added to 25 μL of acetonitrile/0.04% aq. TFA 1:9 v/v to obtain a peptide solution with a concentration of 50 μM. 20 μL of this solution were subjected to analytical RP-HPLC analysis using the same system and conditions as described under Analytical HPLC, but applying a different linear gradient: 0–14 min: A/B 90:10–45:55, 14–15 min: 45:55–5:95, 15–19 min: 5:95 (isocratic). A 1:1 mixture of PBS and acetonitrile/0.04% aq. TFA 1:9 v/v (20 μL) was analyzed to obtain the blank chromatogram.

Series [8] has as its target human neuropeptide Y Y1 receptor (human) (UniProt P25929). Briefly: radioligand binding; competition with [^3H]UR-MK299 ([…]) at intact SK-N-MC cells, 23 ± 2 °C, buffer II (150 mM NaCl).
Series [9] has as its target human neuropeptide Y Y5 receptor (human) (UniProt Q15761). The series can be described thus: radioligand binding; competition with [^3H]propionyl-pNPY (5 nM) at intact HEC-1B-hY5R cells, 23 ± 2 °C, buffer II (150 mM NaCl).
The target in series [10] is T5, human neuropeptide Y Y2 receptor (human, UniProt P49146 1-381).
T5 construct: also called hY2R; source: CHO-hY2R cells (from PerkinElmer), intact cells
T5 sequence (looked up): T3 sequence (P49146 1-381)
The series can be described thus: radioligand binding; competition with [^3H]propionyl-pNPY (0.5 nM) at intact CHO-hY2R cells, 23 ± 2 °C, buffer I (sodium-free). Particulars: one partner purified.

The target of series [11] is T6, human neuropeptide Y Y4 receptor (wild-type, CHO-hY4R-Gqi5-mtAEQ cells) (human, UniProt P50391 1-375).
T6 construct: The cells also express Gqi5 and mitochondrially targeted aequorin; also called wild-type Y4R
The series can be described thus: flow cytometry on cells; association (0.7 nM 16, 1 nM 17, 0.5 nM 18) and dissociation (started with excess hPP and 5) at CHO-hY4R-Gqi5-mtAEQ cells, DPBS (137 mM Na^+), 22 ± 2 °C; monophasic and biphasic fits; Kd(kin) = koff/kon. Particulars: one partner purified. For orientation: In flow cytometry, cells or beads pass a laser one at a time.

For series [12], the target named is T6, human neuropeptide Y Y4 receptor …. Briefly: cell-based or functional assay.

Like-named read-outs stand apart in the source and are kept apart here. Where no end group is shown, it is not given here.

In the case of “1: Sulfo-Cy5-labeled [K^4,Nle^17,30]hPP, reported Y4R fluorescent ligand [Compound 1]”, the Kd (usually the concentration at which binding is half-saturated) in series [1] is 11 nM.

For the molecule `C#CCCCCNC(=O)N=C(N)NCCC[C@@H]1NC(=O)CCC(=O)NCCCCNC(=O)N=C(N)NCCC[C@@H](C(=O)N[C@@H](CC(C)C)C(=O)N[C@@H](CCCNC(=N)N)C(=O)N[C@@H](Cc2ccc(O)cc2)C(N)=O)NC(=O)[C@H](Cc2ccc(O)cc2)NC1=O` [Compound 11, (9S,12S,15S,E)-4-Amino-N-{(S)-1-[((S)-1-{[(S)-1-amino-3-(4-hydroxyphenyl)-1-oxopropan-2-yl]amino}-5-guanidino-1-oxopentan-2-yl)amino]-4-methyl-1-oxopentan-2-yl}-15-{3-[(E)-2-(hex-5-yn-1-ylcarbamoyl)guanidino]propyl}-12-(4-hydroxybenzyl)-2,11,14,17,20-pentaoxo-1,3,5,10,13,16,21-heptaazacyclopentacos-3-ene-9-carboxamide Tris(hydrotrifluoroacetate)], the Ki is above 10000 nM in [2], above 10000 nM in series [3], above 3000 nM in [4] (read-out: Ki hY5R (converted)) and above 3160 nM in series [4] (read-out: pKi ± SEM hY5R (converted)). The maximal response (Emax) (commonly the size of the effect at its maximum, as opposed to the concentration needed) in [5] was found to be 62 ± 1%; in [6], 56 ± 3%. In addition, in [6], the EC50 is 97.7 nM.

With `Cc1cc(/C=C/c2cc3c4c(c2)CCCN4CCC3)cc(C)[n+]1CCCC(=O)N[C@@H]1CC(=O)N[C@@H](CCCNC(=N)N)C(=O)N[C@@H](Cc2ccc(O)cc2)C(=O)N[C@H](C(=O)N[C@@H](CC(C)C)C(=O)N[C@@H](CCCNC(=N)N)C(=O)N[C@@H](Cc2ccc(O)cc2)C(N)=O)CCCNC(N)=NC(=O)NCCCCNC1=O` [Compound 18], the figures for the Ki in series [2], in series [3] and in [4] (read-out: Ki hY5R (converted)) were above 1000 nM, above 1000 nM and 840 nM, respectively. The “time with marginal degradation” value in series [7] (PBS pH 7.4 (10% DMSO), room temperature) is at least 6 h. Besides, the chemical stability entry in series [7] (PBS pH 7.4, room temperature, 48 h, 100 μM) was “slow decomposition”. Further, the results for the Emax in series [5] and in series [6] were 44 ± 2% and 61 ± 5%, respectively. The EC50 in series [6] is 50.1 nM.

On to “2: 5-TAMRA-labeled [K^18,Nle^17,30]hPP, reported Y4R fluorescent ligand [Compound 2]”, for which the Kd in series [1] was 26 nM.

Consider “Sulfo-Cy5-[K^4]hPP: Sulfo-Cy5-labeled [K^4]hPP, reported fluorescent Y4R ligand (APLKPVYPGDNATPEQMAQYAADLRRYINMLTRPRY; not fully specified)”, for which the Kd in series [1] was 5.6 nM.

B1: fluorescent ligand 18 (Py-1-labeled cyclic hexapeptide) (peptide)
peptide: RYRLRY-NH2
modifications: also: Py-1 cyanine dye on the amine of a carbamoylated Arg in the ring, position not given here, cyclic, ring closure not given here
notes: peptide part as in m6; structure drawn in Scheme 2; source: synthetic peptide: from precursor peptide 6 and the pyrylium dye Py-1 (14), preparative HPLC
On to B1, for which the pKi (as a rule, the Ki on a negative log10 scale, so that one unit is a factor of ten) in series [8] is below 6. The molecule further came in with a pKi in series [9] of 6.08. In series [10], this molecule had a pKi below 6. Besides, in series [11], the “kobs(bi,fast)” value was determined as 0.7 min⁻¹, the “kobs(bi,slow)” value was 0.034 min⁻¹ and the “kobs(mono)” value is 0.1 min⁻¹.

B2: fluorescent ligand 19 (Py-5-labeled cyclic hexapeptide) (peptide)
peptide: RYRLRY
modifications: not fully specified; as 11; the alkyne of the carbamoylated arginine in position 1 joined by click chemistry (triazole) to the azido-functionalized pyridinium-type cyanine dye 15 (from Py-5); C-terminal amide
notes: peptide chain as in 11, whose linear precursor 10 is printed in three-letter code at h-0020; 19 is made from 11 and dye 15; source: synthetic peptide: from 11 and the azido-functionalized dye 15 by copper(I)-catalyzed click reaction, preparative HPLC
B2: in series [12], the “EC50, Ca^2+-aequorin assay (CHO-hY4R-Gqi5-mtAEQ cells)” value was found to be 58 nM. Moreover, the pKi in series [8], in series [9] and in series [10] was below 6 each time.

B3: fluorescent ligand 16 (Cy3B-labeled cyclic hexapeptide) (peptide)
peptide: RYRLRY-NH2
modifications: not fully specified (bridges); also: Cy3B conjugated to the amine of the cyclic precursor peptide 6, N^ω-carbamoylated arginine in the ring, position not given here
notes: structure drawn in Scheme 2; source: synthetic peptide: from precursor peptide 6 and Cy3B succinimidyl ester (12), preparative HPLC
As for B3, the pKi was 6.91 in [8], 6.32 in [9] and below 6 in series [10]. For the same molecule, in series [11], the “kobs(bi,fast)” value amounted to 1 min⁻¹. In addition, the “kobs(bi,slow)” value in series [11] turned out to be 0.048 min⁻¹. In addition, the “kobs(mono)” value in [11] was 0.18 min⁻¹.

B4: fluorescent ligand 17 (Sulfo-Cy5-labeled cyclic hexapeptide) (peptide)
peptide: RYRLRY-NH2
modifications: also: Sulfo-Cy5 (S0223) conjugated to the amine of the cyclic precursor peptide 6, N^ω-carbamoylated arginine in the ring, position not given here
notes: peptide part as in m6; structure drawn in Scheme 2; source: synthetic peptide: from precursor peptide 6 and the succinimidyl ester 13 (S0586) of Sulfo-Cy5 (S0223), preparative HPLC
Molecule B4 yielded a pKi in [8] below 6. Besides, the pKi in series [9] was below 6. In [10], this molecule came in with a pKi below 6. Moreover, in [11], the “kobs(bi,fast)” value was found to be 1.89 min⁻¹, the “kobs(bi,slow)” value was determined as 0.071 min⁻¹ and the “kobs(mono)” value was 0.15 min⁻¹.
